Test results as given in the supplement of paper PMC11208486.

Assay: specific initial activity, cyclohex-2-enone reduction (U mg-1); higher = more active
Experimental: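 Specific initial activity of purified ene reductases with 10 mM cyclohex-2-enone and 0.2 mM NAD(P)H in 50 mM sodium phosphate pH 7.4 with 0-45% (v/v) ethanol or methanol, at set reaction temperatures of 25-45 °C. NAD(P)H depletion was followed at 340 nm for 480 s, in triplicate.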

MSFVKDFKPQALGDTNLFKPIKIGNNELLHRAVIPPLTRMRALHPGNIPNRDWAVEYYTQRAQRPGTMIITEGAFISPQAGGYDNAPGVWSEEQMVEWTKIFNAIHEKKSFVWVQLWVLGWAAFPDNLARDGLRYDSASDNVFMDAEQEAKAKKANNPQHSLTKDEIKQYIKEYVQAAKNSIAAGADGVEIHSANGYLLNQFLDPHSNTRTDEYGGSIENRARFTLEVVDALVEAIGHEKVGLRLSPYGVFNSMSGGAETGIVAQYAYVAGELEKRAKAGKRLAFVHLVEPRVTNPFLTEGEGEYEGGSNDFVYSIWKGPVIRAGNFALHPEVVREEVKDKRTLIGYGRFFISNPDLVDRLEKGLPLNKYDRDTFYQMSAHGYIDYPTYEEALKLGWDKK
specific initial activity
Settings	co-solvent: ethanol	co-solvent: methanol
co-solvent concentration (% v/v): 0, reaction temperature 25 °C	–	0.24
co-solvent concentration (% v/v): 0, reaction temperature 30 °C	–	0.21
co-solvent concentration (% v/v): 0, reaction temperature 35 °C	–	0.37
co-solvent concentration (% v/v): 0, reaction temperature 40 °C	–	0.23
co-solvent concentration (% v/v): 0, reaction temperature 45 °C	–	0.07
co-solvent concentration (% v/v): 5, reaction temperature 25 °C	–	0.21
co-solvent concentration (% v/v): 5, reaction temperature 30 °C	–	0.29
co-solvent concentration (% v/v): 5, reaction temperature 35 °C	–	0.46
co-solvent concentration (% v/v): 5, reaction temperature 40 °C	–	0.25
co-solvent concentration (% v/v): 5, reaction temperature 45 °C	–	0.12
co-solvent concentration (% v/v): 10, reaction temperature 25 °C	–	0.3
co-solvent concentration (% v/v): 10, reaction temperature 30 °C	–	0.36
co-solvent concentration (% v/v): 10, reaction temperature 35 °C	–	0.52
co-solvent concentration (% v/v): 10, reaction temperature 40 °C	–	0.17
co-solvent concentration (% v/v): 10, reaction temperature 45 °C	–	0.08
co-solvent concentration (% v/v): 15, reaction temperature 25 °C	–	0.33
co-solvent concentration (% v/v): 15, reaction temperature 30 °C	–	0.4
co-solvent concentration (% v/v): 15, reaction temperature 35 °C	–	0.55
co-solvent concentration (% v/v): 15, reaction temperature 40 °C	–	0.09
co-solvent concentration (% v/v): 15, reaction temperature 45 °C	–	0.04
co-solvent concentration (% v/v): 20, reaction temperature 25 °C	–	0.37
co-solvent concentration (% v/v): 20, reaction temperature 30 °C	–	0.43
co-solvent concentration (% v/v): 20, reaction temperature 35 °C	–	0.4
co-solvent concentration (% v/v): 20, reaction temperature 40 °C	–	0.02
co-solvent concentration (% v/v): 20, reaction temperature 45 °C	–	0.01
co-solvent concentration (% v/v): 25, reaction temperature 25 °C	–	0.31
co-solvent concentration (% v/v): 25, reaction temperature 30 °C	–	0.3
co-solvent concentration (% v/v): 25, reaction temperature 35 °C	–	0.06
co-solvent concentration (% v/v): 25, reaction temperature 40 °C	–	0.02
co-solvent concentration (% v/v): 25, reaction temperature 45 °C	–	0.02
co-solvent concentration (% v/v): 30, reaction temperature 25 °C	–	0.19
co-solvent concentration (% v/v): 30, reaction temperature 30 °C	–	0.14
co-solvent concentration (% v/v): 30, reaction temperature 35 °C	0.02	0.01
co-solvent concentration (% v/v): 30, reaction temperature 40 °C	0.01	0.01
co-solvent concentration (% v/v): 30, reaction temperature 45 °C	0.02	0
co-solvent concentration (% v/v): 35, reaction temperature 25 °C	0.07	0.03
co-solvent concentration (% v/v): 35, reaction temperature 30 °C	0.03	0.04
co-solvent concentration (% v/v): 35, reaction temperature 35 °C	0.01	0.01
co-solvent concentration (% v/v): 35, reaction temperature 40 °C	0.01	0
co-solvent concentration (% v/v): 35, reaction temperature 45 °C	0.03	0
co-solvent concentration (% v/v): 40, reaction temperature 25 °C	0.02	0.02
co-solvent concentration (% v/v): 40, reaction temperature 30 °C	0.02	0.03
co-solvent concentration (% v/v): 40, reaction temperature 35 °C	0.01	0
co-solvent concentration (% v/v): 40, reaction temperature 40 °C	0.01	0.01
co-solvent concentration (% v/v): 40, reaction temperature 45 °C	0.01	0.01
co-solvent concentration (% v/v): 45, reaction temperature 25 °C	0.01	0.01
co-solvent concentration (% v/v): 45, reaction temperature 30 °C	0.04	0.03
co-solvent concentration (% v/v): 45, reaction temperature 35 °C	0.02	0.01
co-solvent concentration (% v/v): 45, reaction temperature 40 °C	0.01	0.01
co-solvent concentration (% v/v): 45, reaction temperature 45 °C	0.02	0
